Patent publication US20250295796A1, “CELL PENETRATING POLYPEPTIDES (CPPS) AND THEIR USE IN HUMAN THERAPY” (RDP PHARMA AG, priority 2021, published 2025)

What was measured:
[1] = system: PATU8902; experiment: Propidium iodide monolayer assay, PATU8902; assay type: cell-based, human; conditions: PATU8902, four days
Experimental: (§1) Monolayer Assay Propidium Iodid (PI). Cells were harvested from exponential phase cultures, counted and depending on the cell line 3.000 to 20.000 cells were plated in 96-well flat-bottom microtiter plates After a 24 h recovery period to allow cells to resume exponential growth, 10 μl of culture medium (four control wells/plate) or culture medium with the test compound were added by a liquid handling robotic system and treatment continued for four days. Compounds were applied in half-log increments at 10 concentrations in duplicate. Three independent experiments were performed. Cells were then washed with 200 μl PBS to remove dead cells followed by addition of 200 μl of a solution containing 7 μg/ml propidium iodide (PI) and 0.1% (v/v) Triton X-100. After an incubation period of 1-2 h at room temperature, fluorescence (FU) was measured using the Cytofluor 4000 microplate reader (excitation λ=530 nm, emission λ=620 nm) to quantify the amount of attached viable cells. […]
(§2) CROMOC36—in vitro activity Human pancreatic carcinoma cell lines. […] Antitumor activity was assessed after four days of CROMOC36 treatment using a propidium iodide based monolayer proliferation assay. […]

[2] = system: LIXF 575L; experiment: Monolayer assay, 96h treatment, LIXF 575L; assay type: cell-based, human
Experimental: (§3) Monolayer Assay Propidium Iodid (PI). Cells were harvested from exponential phase cultures, counted and depending on the cell line 3.000 to 20.000 cells were plated in 96-well flat-bottom microtiter plates After a 24 h recovery period to allow cells to resume exponential growth, 10 μl of culture medium (four control wells/plate) or culture medium with the test compound were added by a liquid handling robotic system and treatment continued for four days. Compounds were applied in half-log increments at 10 concentrations in duplicate. Three independent experiments were performed. Cells were then washed with 200 μl PBS to remove dead cells followed by addition of 200 μl of a solution containing 7 μg/ml propidium iodide (PI) and 0.1% (v/v) Triton X-100. After an incubation period of 1-2 h at room temperature, fluorescence (FU) was measured using the Cytofluor 4000 microplate reader (excitation λ=530 nm, emission λ=620 nm) to quantify the amount of attached viable cells. Concentrations required for 50% inhibition of cell growth (IC50) were calculated by non-linear regression (log[conc. of inhibitor]versus response (% T/C)) using the analysis software GraphPad Prism®, Prism 5 for windows, version 5.01 (GraphPad Software Inc., CA).
(§4) CROMOC36—in vitro activity Human hepatocellular carcinoma cell lines IC50 values of CROMOC36 and Sorafenib, 96h treatment. […]

[3] = system: 4T1 breast tumor lung metastasis; experiment: Organ-distribution in 4T1 breast tumor lung metastasis mouse model; conditions: four hours after i.v. 8 mg/kg, ex vivo total photon flux
Experimental: In vivo organ-distribution of CROMOC36-AF680 molecules in tumor containing mice. First orthotopic allograft 4T1 breast tumor lung metastasis mouse model was analyzed for CROMOC-AF680 distribution in vivo (FIG. 19A). Four hours after i.v. injection of 8 mg/kg of the CROMOC molecule labeled with the AF680 fluorescent dye, lungs containing 4T1cell metastasis were isolated and fluorescence intensity was assessed ex vivo (total photon flux shown on X-axis logarithmic scale).

[4] = system: MIAPACA2; experiment: Propidium iodide monolayer assay, MIAPACA2; assay type: cell-based, human; conditions: MIAPACA2, four days
Experimental: as §1, §2

[5] = system: HEPG2; experiment: Monolayer assay, 96h treatment, HEPG2; assay type: cell-based, human; conditions: HEPG2, 96h treatment
Experimental: as §3, §4

[6] = system: human colon carcinoma with null p53 (HCT116 p53−/−) xenograft; experiment: HCT116 p53-/- xenograft, CROMOC36 versus nuclease impaired CROMOC60; assay type: in vivo, mouse; conditions: s.c. 4 mg/kg on days 0, 1, 2, 3, 6, 7, 8, 9, 10, 20, 22, 24
Experimental: FIG. 7: HCT116 p53−/− human colon carcinoma xenograft. Treatment on advanced tumors (volume >50 mm^3). Dose: CROMOC36 4 mg/kg; CROMOC60 4 mg/kg. Treatment: s.c. administration on day 0, 1, 2, 3, 6, 7, 8, 9, 10, 20, 22, 24.
A study was conducted to test the antitumor efficacy of CROMOC36 on an advanced human colon carcinoma with null p53 (HCT116 p53−/−) xenograft model and compare it to a vehicle or a nuclease impaired version CROMOC60 treatment group. CROMOC60 is no more catalytically active as a nuclease but is able to be transported to the nucleus of a cell. This study was also designed to proof that the active principle of the tumor growth inhibiting activity of CROMOC is the nuclease activity in vivo. CROMOC36 and CROMOC60 were both administered subcutaneously (s.c.) at 4 mg/kg dose on the days 0, 1, 2, 3, 6, 7, 8, 9, 10, 20, 22, 24. […] This also proofs that CROMOC36 can serve as a valid DNA DSB reagent.

[7] = system: PAXF 546L; experiment: Propidium iodide monolayer assay, PAXF 546L; assay type: cell-based, human; conditions: four days
Experimental: as §1, §2

[8] = system: M5076 ovarian reticulum sarcoma tumor cell line; experiment: M5076 artificial hepatic metastasis model, i.v. route
[9] = system: primary hepatocytes; experiment: SRB assay for 96 hours, primary hepatocytes; assay type: cell-based; conditions: non-tumor cells primary hepatocytes, SRB 96 hours
Experimental: Cells were harvested from exponential phase cultures, and depending on the cell line 10.000 to 30.000 cells were plated in 96-well flat-bottom microtiter plates. […] Compounds were applied at 9 concentrations eight wells/concentration). At least three independent experiments were performed. For SRB staining, cells were fixed with SRB01 for 1h at 4° C. (final concentration of TCA=10%) washed with a plate washer (Hydroflex, Tecan©) for five times with H2O; and stained with 100 μl of SRB02 at room temperature for 10 min following 4 washes in SRB03 and finally 100 μl of developer solution SRB04 for 5 minutes with shaking. Optical density was assessed using a plate-reader (Sunrise, Tecan©) at 540 nm. Concentrations required for 50% inhibition of cell growth (IC50) were calculated by non-linear regression (log[conc. of inhibitor] versus response (% T/C)) using the analysis software GraphPad Prism®, Prism 5 for windows, version 5.01 (GraphPad Software Inc., CA). (SRB Buffers FIG. 25).

[10] = system: DNA double strand breaks (Phospho-H2AX, Phospho-H3); experiment: Immunohistochemistry of liver specimens after single IV treatment; assay type: in vivo, Male Sprague Dawley Rats; conditions: samples after 13-15 days
Text: FIG. 8: Immunohistochemistry (IHC) analysis paraffin embedded liver specimens of Male Sprague Dawley Rats after single IV treatment with CROMOC36. Samples were collected after 13-15 days and IHC was used to assess the Histone surrogate-markers for DNA double strand breaks Phospho-H2AX and Phospho-H3 for analyzing the persistence of DNA double stand breaks (DSBs) at very high CROMOC concentrations in tumors in comparison to the KI67marker.
As a proof of the nuclease activity in vivo an Immunohistochemistry (IHC) analysis of paraffin embedded liver specimens of Male Sprague Dawley Rats after single IV treatment with CROMOC36.

B1: CROMOC36: single chain PvuII endonuclease fused at its C-terminus to DDM36, PEGylated final product used in the Examples (protein)
chain: MSHPDLNKLLELWPHIQEYQDLALKHGINDIFQDNGGKLLQVLLITGLTVLPGREGNDAVDNAGQEYELKSINIDLTKGFSTHHHMNPVIIAKYRQVPWIFAIYRGIAIEAIYRLEPKDLEFYYDKWERKWYSDGHKDINNPKIPVKYVMEHGTKIYGSGGSGGSSHPDLNKLLELWPHIQEYQDLALKHGINDIFQDNGGKLLQVLLITGLTVLPGREGNDAVDNAGQEYELKSINIDLTKGFSTHHHMNPVIIAKYRQVPWIFAIYRGIAIEAIYRLEPKDLEFYYDKWERKWYSDGHKDINNPKIPVKYVMEHGTKIYGNSGSGKKKKKGKGSGLGSGKKKDPLGSGLGSGKKKKKGKGSGLGSGKKKDPLGST
modifications: PEGylated; peptide, CROMOC36
B1 was tested, and the IC50 [1] was 0.00233 µM, the IC50 [2] was 0.017 µM and the “enrichment in lungs of breast tumor metastasis containing animals versus tumor free animals” value [3] was “more than 10.000 ×”. For the same molecule, the IC50 [4] was ~0.01 µM, the IC50 [5] was 0.0137 µM and the “progression of HCT116 p53−/− human colon carcinoma as compared to vehicle control” value [6] was “significantly inhibited”. The IC50 [7] was 0.00649 µM, the “% ILS (mean survival time versus control group)” value ([8]; CROMOC36 16 mg/kg i.v. q7dx3, Doxorubicin 6 mg/kg q4dx3 (MTD)) was 68% and the “antimetastatic activity in Liver M5076 allograft” value ([8]; i.v. route, 16 mg/kg q7dx3) was “strong antimetastatic activity”. The IC50 [9] was > 10 µM and the “DNA double strand breaks in liver (Phospho-H2AX, Phospho-H3 IHC)” value [10] was “DSBs are induced”.
